According to US20090202506A1 (ORTHO MCNEIL PHARMACEUTICAL, published 2009):

Tests used:
[1] = target: T1, D^b MHC class I molecule (;mouse, UniProt P01887 21-119; P01899 25-309, limits assumed); assay: MHC class I stabilization assay, flow cytometry on RMAS cells
T1 construct: Empty class I molecule on the surface of RMAS cells; also called D^b class I molecules
T1 sequence (MHC heavy, looked up): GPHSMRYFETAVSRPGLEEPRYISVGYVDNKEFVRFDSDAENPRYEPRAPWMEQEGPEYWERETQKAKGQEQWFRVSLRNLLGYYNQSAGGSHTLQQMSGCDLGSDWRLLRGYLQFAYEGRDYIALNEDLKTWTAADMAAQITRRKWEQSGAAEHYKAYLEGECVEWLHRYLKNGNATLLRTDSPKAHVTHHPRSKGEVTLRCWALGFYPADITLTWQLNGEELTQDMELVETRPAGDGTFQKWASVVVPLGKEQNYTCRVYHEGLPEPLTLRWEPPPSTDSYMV
T1 sequence (b2m, looked up): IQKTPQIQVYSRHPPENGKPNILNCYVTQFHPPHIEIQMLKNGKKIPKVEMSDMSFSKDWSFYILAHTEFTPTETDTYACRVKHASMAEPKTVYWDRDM
Protocol: (§1) The binding capacity of these synthetic peptides to L^d and D^b class I molecules were tested in an MHC class I stabilization assay (Cai et al. (1996) supra). Antigen-transporting deficient (TAP) RMAS cells (H-2^b) or L^d transfected RMAS (RMAS-L^d) cells were cultured in the presence of a titrated concentration of peptides at 27° C. After overnight culturing at 27° C., these cells were further cultured for two hours at 37° C. and the surface expression of L^d or D^b on the cells were analyzed by flow cytometry. […] Of the five peptides predicted bind to D^b, only IgE44 binds Db strongly and two peptides, IgE16 and IgE125, bind D^b weakly. […] Thus, a total of six peptides were identified that bind to either L^d or D^b MHC class I molecules.

[2] = target: T2, L^d MHC class I molecule (;mouse, UniProt P01887 21-119; P01897 25-362, limits assumed); assay: MHC class I stabilization assay, flow cytometry of surface L^d on RMAS-L^d cells with titrated peptide
T2 construct: Empty class I molecule on the surface of RMAS-L^d cells; also called L^d class I molecules
T2 sequence (MHC heavy, looked up): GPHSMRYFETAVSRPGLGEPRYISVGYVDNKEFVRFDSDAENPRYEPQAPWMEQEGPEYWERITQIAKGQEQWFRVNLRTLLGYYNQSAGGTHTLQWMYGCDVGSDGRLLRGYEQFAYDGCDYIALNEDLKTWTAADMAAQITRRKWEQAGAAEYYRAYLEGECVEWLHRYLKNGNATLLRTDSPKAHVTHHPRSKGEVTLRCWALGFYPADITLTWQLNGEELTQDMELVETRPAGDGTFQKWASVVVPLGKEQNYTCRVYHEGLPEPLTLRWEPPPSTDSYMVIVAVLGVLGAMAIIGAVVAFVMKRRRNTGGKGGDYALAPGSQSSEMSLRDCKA
T2 sequence (b2m, looked up): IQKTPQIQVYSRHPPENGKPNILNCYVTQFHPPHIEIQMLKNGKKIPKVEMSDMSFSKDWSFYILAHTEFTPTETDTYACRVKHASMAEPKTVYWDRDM
Protocol: as §1

[3] = target: T2, L^d MHC class I molecule; assay: MHC class I stabilization assay, flow cytometry on RMAS-L^d cells
Protocol: as §1

[4] = target: T1, D^b MHC class I molecule; assay: MHC class I stabilization assay, flow cytometry of surface D^b on RMAS cells with titrated peptide
Protocol: as §1

B1: IgE 16 (peptide)
peptide: TASMTLGCL
- binding result [1]: binds

B2: IgE 105 (peptide)
peptide: HSSCDPNAF
- binding result [2]: no binding

B3: IgE 11 (peptide)
peptide: KPCKGTASM
- ratio of fluorescence intensity (with peptide - without peptide)/without peptide [3]: > 2 fold

B4: IgE 29 (peptide)
peptide: FPNPVTVTW
- binding result [2]: no binding

B5: IgE 159 (peptide)
peptide: ASTCSKLNI
- binding result [4]: no binding

B6: IgE 411 (peptide)
peptide: TSLGNTSLR
- binding result [4]: no binding

B7: IgE 363 (peptide)
peptide: KSNGSNQGF
- binding result [2]: no binding

B8: IgE 209 (peptide)
peptide: IPPSPLDLY
- binding result [2]: no binding

B9: IgE 307 (peptide)
peptide: RSAPEVYVF
- binding result [2]: no binding

B10: IgE 366 (peptide)
peptide: GSNQGFFIF
- binding result [1]: binds
- binding result [3]: binds

B11: IgE 44 (peptide)
peptide: MSTVNFPAL
notes: also called MSTVNFPAL
- ratio of fluorescence intensity (with peptide - without peptide)/without peptide [1]: > 2 fold

B12: IgE 114 (peptide)
peptide: HSTIQLYCF
- binding result [3]: binds

B13: IgE 125 (peptide)
peptide: GHILNDVSV
- binding result [1]: binds
